This passage reports Kd results from paper doi:10.1101/2025.07.11.664054.

Common to all, as to assay: ITC
The target in assay [1] is purified OsHPP11-HMA (rice).
Assay [2] concerns the target purified OsHPP09-HMA (rice).
Assay [3] deals with purified OsHPP10-HMA (rice).
Assay [4] concerns the target purified OsHIPP21-HMA (rice).

The term Kd denotes a measure of binding affinity in units of concentration. For the substance “recombinant AVR-Pia (from UniProt B9WZW9 1-85) (natural protein)”, the Kd in assay [1] turned out to be 0.772 µM; in assay [2] it was 0.115 µM; in assay [3], 5.26 µM; in assay [4], 1.29 µM.
